Like-named read-outs stand apart in the source and are kept apart here.
Assays:
Assay in all cases: cell-based or functional assay
[1] = target: T1, high-affinity IL2 receptor (IL2Rαβγ) of the mouse T cell line CTLL-2 (mouse) (UniProt P01590)
T1 sequence (looked up) 1: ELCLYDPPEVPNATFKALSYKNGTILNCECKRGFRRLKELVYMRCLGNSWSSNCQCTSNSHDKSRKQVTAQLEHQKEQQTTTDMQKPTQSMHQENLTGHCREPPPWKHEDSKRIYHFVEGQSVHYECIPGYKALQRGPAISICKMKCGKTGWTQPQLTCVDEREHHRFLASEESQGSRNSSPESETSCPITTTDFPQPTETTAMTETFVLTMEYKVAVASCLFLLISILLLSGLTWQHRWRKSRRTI
T1 sequence (looked up) 2: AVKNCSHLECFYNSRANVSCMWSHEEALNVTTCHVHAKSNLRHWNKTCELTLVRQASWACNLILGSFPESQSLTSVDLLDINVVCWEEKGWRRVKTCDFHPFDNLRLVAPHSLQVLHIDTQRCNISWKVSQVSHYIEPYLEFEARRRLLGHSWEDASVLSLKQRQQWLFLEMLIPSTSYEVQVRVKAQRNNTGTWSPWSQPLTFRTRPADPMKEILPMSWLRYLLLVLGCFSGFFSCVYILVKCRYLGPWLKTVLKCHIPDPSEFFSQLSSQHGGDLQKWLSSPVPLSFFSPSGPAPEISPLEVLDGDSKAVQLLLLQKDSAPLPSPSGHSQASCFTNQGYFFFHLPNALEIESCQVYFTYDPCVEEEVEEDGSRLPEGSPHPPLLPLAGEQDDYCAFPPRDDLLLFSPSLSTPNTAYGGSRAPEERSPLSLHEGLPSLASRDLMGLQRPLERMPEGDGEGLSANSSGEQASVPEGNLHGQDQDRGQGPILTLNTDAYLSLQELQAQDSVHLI
T1 sequence (looked up) 3: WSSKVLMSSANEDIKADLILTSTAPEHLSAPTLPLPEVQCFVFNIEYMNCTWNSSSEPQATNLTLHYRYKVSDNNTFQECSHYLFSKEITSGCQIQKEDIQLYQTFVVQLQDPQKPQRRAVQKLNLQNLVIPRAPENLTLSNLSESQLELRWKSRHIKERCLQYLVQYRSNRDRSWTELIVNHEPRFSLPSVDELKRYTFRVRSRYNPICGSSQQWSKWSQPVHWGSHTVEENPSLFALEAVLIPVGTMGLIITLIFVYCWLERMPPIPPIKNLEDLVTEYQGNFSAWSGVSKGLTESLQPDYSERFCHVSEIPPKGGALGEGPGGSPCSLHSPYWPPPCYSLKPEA

[2] = target: T1, high-affinity IL2 receptor (IL2Rαβγ) of the mouse T cell line CTLL-2 (mouse); remark: listed apart in the source
[3] = target: intermediate-affinity IL2 receptor (IL2Rβγ), human (human) (UniProt P14784)
[4] = target: intermediate-affinity IL2 receptor (IL2Rβγ), human (human) (UniProt P14784); set-up: unit not given beside the values
[5] = target: high-affinity IL2 receptor (IL2Rαβγ), human, on CD4+CD25+FoxP3+ regulatory T cells (human) (UniProt P01589); set-up: unit not given beside the values
Chain of UniProt P01589 (P01589 22-272, chain 1 of 3): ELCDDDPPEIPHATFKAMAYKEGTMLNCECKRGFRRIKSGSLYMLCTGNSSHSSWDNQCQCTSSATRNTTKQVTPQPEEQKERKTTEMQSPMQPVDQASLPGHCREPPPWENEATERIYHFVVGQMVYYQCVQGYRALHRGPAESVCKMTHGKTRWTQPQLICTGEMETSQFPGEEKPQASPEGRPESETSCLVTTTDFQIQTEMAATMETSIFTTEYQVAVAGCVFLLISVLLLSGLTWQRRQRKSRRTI
Chain of UniProt P01589 (P14784 27-551, chain 2 of 3, further chain): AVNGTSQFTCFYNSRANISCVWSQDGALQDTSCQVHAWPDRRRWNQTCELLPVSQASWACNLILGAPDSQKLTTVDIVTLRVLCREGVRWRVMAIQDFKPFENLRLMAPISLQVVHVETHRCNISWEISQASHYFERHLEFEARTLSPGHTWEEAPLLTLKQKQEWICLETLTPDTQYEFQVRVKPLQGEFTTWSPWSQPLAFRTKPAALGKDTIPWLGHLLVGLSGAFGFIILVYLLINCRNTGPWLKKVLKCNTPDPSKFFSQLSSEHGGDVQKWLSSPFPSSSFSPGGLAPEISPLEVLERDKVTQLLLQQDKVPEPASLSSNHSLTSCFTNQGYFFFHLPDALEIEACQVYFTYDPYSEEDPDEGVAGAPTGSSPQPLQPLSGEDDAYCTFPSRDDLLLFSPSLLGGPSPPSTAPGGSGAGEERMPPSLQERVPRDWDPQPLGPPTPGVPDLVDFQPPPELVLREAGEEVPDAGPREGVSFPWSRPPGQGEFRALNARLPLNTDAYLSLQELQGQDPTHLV
Chain of UniProt P01589 (P31785 23-369, chain 3 of 3, further chain): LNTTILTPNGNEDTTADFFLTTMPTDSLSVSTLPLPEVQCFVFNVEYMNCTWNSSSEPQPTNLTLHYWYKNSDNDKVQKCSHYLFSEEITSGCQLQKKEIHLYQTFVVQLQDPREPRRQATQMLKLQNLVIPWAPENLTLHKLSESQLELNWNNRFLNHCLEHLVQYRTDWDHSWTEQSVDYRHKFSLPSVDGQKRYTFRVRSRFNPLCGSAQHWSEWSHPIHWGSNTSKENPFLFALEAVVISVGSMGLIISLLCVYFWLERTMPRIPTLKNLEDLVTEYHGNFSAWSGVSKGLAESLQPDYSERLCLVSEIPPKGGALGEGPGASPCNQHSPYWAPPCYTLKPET

Chain of UniProt P14784 (P14784 27-551, chain 1 of 2): as the sequence (P14784 27-551, chain 2 of 3, further chain) above
Chain of UniProt P14784 (P31785 23-369, chain 2 of 2, further chain): as the sequence (P31785 23-369, chain 3 of 3, further chain) above

EC50 of CTLL-2 proliferation (%-supernatant) [1]: 0.115 | EC50 of CTLL-2 proliferation (%-supernatant) [2]: 0.214 | EC50 of TF-1 IL2Rβγ proliferation (%-supernatant) [3]: 2.35 | EC50 of STAT5 phosphorylation, CD4+CD25- T helper cells (%-supernatant) [4]: 4.36 | EC50 of STAT5 phosphorylation, CD4+CD25+FoxP3+ Treg (%-supernatant) [5]: 0.111
Substance: hAlb-hIL2 (ligand)
EC50 of STAT5 phosphorylation, CD8+ cytotoxic T cells (%-supernatant) [4]: 6.84

From patent US20210292386A1
